Measurements as given in the supplement of paper PMC9112550, “Optimization of the antimicrobial peptide Bac7 by deep mutational scanning” (BMC Biology, 2022).

System: Escherichia coli TOP10
Experiment: shrunken log2 fold change of peptide-encoding DNA abundance (4.5 h post-induction vs induction); higher = less antimicrobial activity (less host growth inhibition)
Conditions: time post-induction: 4.5 h; library: site-saturation at positions 5, 18, 19, 20
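Note: peptides expressed intracellularly from a pBAD plasmid library in pooled LB shake-flask culture, induced with 0.3% L-arabinose, DNA abundance read by NGS, three biological replicates, DESeq2 with apeglm shrinkage.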

Sequence | shrunken log2 fold change
RRIRPRPPRLPRPRPRPRERPRP | 0.121
RRIRTRPPRLPRPRPRPMPGPRP | 0.106
RRIRYRPPRLPRPRPRPKERPRP | -0.002
RRIRARPPRLPRPRPRPNCSPRP | 0.179
RRIRCRPPRLPRPRPRPDGGPRP | 0.196
RRIRSRPPRLPRPRPRPGQWPRP | -0.0109
RRIRPRPPRLPRPRPRPWDFPRP | 0.122
RRIRQRPPRLPRPRPRPLGIPRP | -0.381
RRIRYRPPRLPRPRPRPWLYPRP | -0.613
RRIRPRPPRLPRPRPRPQCDPRP | -0.254
RRIRKRPPRLPRPRPRPSVEPRP | 0.0133
RRIRVRPPRLPRPRPRPRNNPRP | -0.425
RRIRDRPPRLPRPRPRPPMHPRP | 0.319
RRIRDRPPRLPRPRPRPPSWPRP | 0.102
RRIRMRPPRLPRPRPRPAHHPRP | 0.0701
RRIRSRPPRLPRPRPRPMGFPRP | -0.0207
RRIRLRPPRLPRPRPRPIIIPRP | -0.302
RRIRFRPPRLPRPRPRPFPGPRP | -0.00776
RRIRQRPPRLPRPRPRPHNYPRP | -0.437
RRIRWRPPRLPRPRPRPDGVPRP | -0.1
RRIRGRPPRLPRPRPRPLHSPRP | 0.529
RRIRNRPPRLPRPRPRPPRCPRP | 0.389
RRIRARPPRLPRPRPRPPEWPRP | 0.734
RRIRFRPPRLPRPRPRPHNAPRP | -0.54
RRIRDRPPRLPRPRPRPFFPPRP | 0.0715

Sequence | shrunken log2 fold change
RRIRGRPPRLPRPRPRPVNIPRP | 0.145
RRIRCRPPRLPRPRPRPFLLPRP | -0.569
RRIRVRPPRLPRPRPRPGFVPRP | 0.0922
RRIRHRPPRLPRPRPRPPFYPRP | -0.288
RRIRGRPPRLPRPRPRPGKMPRP | 0.224
RRIRNRPPRLPRPRPRPSYKPRP | -0.819
RRIRKRPPRLPRPRPRPICCPRP | 0.583
RRIRDRPPRLPRPRPRPMQDPRP | -0.0272
RRIRDRPPRLPRPRPRPNDKPRP | -0.555
RRIRFRPPRLPRPRPRPLLQPRP | 0.0394
RRIRFRPPRLPRPRPRPCIQPRP | -0.0483
RRIRCRPPRLPRPRPRPINLPRP | -0.355
RRIRYRPPRLPRPRPRPGWQPRP | 0.015
RRIRMRPPRLPRPRPRPLVYPRP | 0.19
RRIRARPPRLPRPRPRPTWNPRP | 0.279
RRIRNRPPRLPRPRPRPHICPRP | -0.0994
RRIRERPPRLPRPRPRPYKDPRP | -0.157
RRIRIRPPRLPRPRPRPVATPRP | -0.374
RRIRIRPPRLPRPRPRPFFSPRP | -0.799
RRIRKRPPRLPRPRPRPQYAPRP | 0.0233
RRIRSRPPRLPRPRPRPHRVPRP | 0.0316
RRIRKRPPRLPRPRPRPAIEPRP | 0.018
RRIRGRPPRLPRPRPRPFMFPRP | 1.16
RRIRRRPPRLPRPRPRPPMKPRP | 0.522
RRIRLRPPRLPRPRPRPVYNPRP | 0.41

Sequence | shrunken log2 fold change
RRIRTRPPRLPRPRPRPALTPRP | 0.251
RRIRKRPPRLPRPRPRPWRPPRP | 0.177
RRIRYRPPRLPRPRPRPWLEPRP | -0.118
RRIRWRPPRLPRPRPRPPFAPRP | 0.544
RRIRHRPPRLPRPRPRPVHMPRP | -0.0408
RRIRRRPPRLPRPRPRPACIPRP | 0.542
RRIRKRPPRLPRPRPRPKIIPRP | -0.135
RRIRERPPRLPRPRPRPNDVPRP | 0.0254
RRIRCRPPRLPRPRPRPLCTPRP | -0.088
RRIRIRPPRLPRPRPRPPWNPRP | -0.403
RRIRSRPPRLPRPRPRPMHPPRP | -0.0546
RRIRSRPPRLPRPRPRPTIHPRP | -0.51
RRIRNRPPRLPRPRPRPVMSPRP | 0.0178
RRIRTRPPRLPRPRPRPGEIPRP | -0.26
RRIRTRPPRLPRPRPRPSPYPRP | -0.573
RRIRMRPPRLPRPRPRPGHNPRP | 0.231
RRIRKRPPRLPRPRPRPETWPRP | 0.0991
RRIRPRPPRLPRPRPRPSQVPRP | -0.645
RRIRNRPPRLPRPRPRPGFMPRP | -0.0522
RRIRLRPPRLPRPRPRPLVDPRP | -0.0956
RRIRVRPPRLPRPRPRPGIWPRP | 0.339
RRIRNRPPRLPRPRPRPYDPPRP | -0.00192
RRIRKRPPRLPRPRPRPRYLPRP | -0.179
RRIRARPPRLPRPRPRPNYNPRP | -0.556
RRIRGRPPRLPRPRPRPMDWPRP | 0.929

Sequence | shrunken log2 fold change
RRIRFRPPRLPRPRPRPILKPRP | -0.43
RRIRERPPRLPRPRPRPTHGPRP | 0.0992
RRIRDRPPRLPRPRPRPCDVPRP | -0.0231
RRIRSRPPRLPRPRPRPVREPRP | 0.723
RRIRDRPPRLPRPRPRPDSLPRP | 0.0462
RRIRWRPPRLPRPRPRPHIMPRP | -0.457
RRIRCRPPRLPRPRPRPEGLPRP | 0.0021
RRIRIRPPRLPRPRPRPNEGPRP | -0.45
RRIRNRPPRLPRPRPRPFYAPRP | -0.281
RRIRTRPPRLPRPRPRPPDPPRP | 0.197
RRIRQRPPRLPRPRPRPNSHPRP | -0.191
RRIRVRPPRLPRPRPRPRIIPRP | -0.0581
RRIRYRPPRLPRPRPRPSKCPRP | -0.00419
RRIRVRPPRLPRPRPRPDVPPRP | -0.0976
RRIRSRPPRLPRPRPRPEIFPRP | -0.432
RRIRTRPPRLPRPRPRPTFIPRP | -0.39
RRIRARPPRLPRPRPRPRARPRP | 0.911
RRIRIRPPRLPRPRPRPIMGPRP | -0.08
RRIRCRPPRLPRPRPRPEFHPRP | -0.664
RRIRARPPRLPRPRPRPYWAPRP | -0.106
RRIRRRPPRLPRPRPRPFHQPRP | -0.191
RRIRTRPPRLPRPRPRPWEHPRP | -0.069
RRIRQRPPRLPRPRPRPQHLPRP | -0.0402
RRIRRRPPRLPRPRPRPQALPRP | 0.128
RRIRTRPPRLPRPRPRPEPMPRP | 0.00621

Sequence | shrunken log2 fold change
RRIRERPPRLPRPRPRPRFLPRP | -0.18
RRIRGRPPRLPRPRPRPFFSPRP | 0.125
RRIRVRPPRLPRPRPRPWQLPRP | -0.421
RRIRPRPPRLPRPRPRPWAQPRP | -0.00768
RRIRLRPPRLPRPRPRPPGWPRP | 0.218
RRIRYRPPRLPRPRPRPPKMPRP | 0.28
RRIRWRPPRLPRPRPRPEPGPRP | 0.43
RRIRCRPPRLPRPRPRPIPEPRP | 0.00841
RRIRHRPPRLPRPRPRPLTEPRP | -0.342
RRIRIRPPRLPRPRPRPKLTPRP | 0.0656
RRIRCRPPRLPRPRPRPWKTPRP | -0.152
RRIRTRPPRLPRPRPRPKAGPRP | 0.768
RRIRTRPPRLPRPRPRPMSFPRP | -0.0183
RRIRSRPPRLPRPRPRPSLGPRP | 0.319
RRIRMRPPRLPRPRPRPAGAPRP | 1.28
RRIRVRPPRLPRPRPRPKIDPRP | 0.124
RRIRCRPPRLPRPRPRPTGMPRP | -0.013
RRIRSRPPRLPRPRPRPVFMPRP | -0.236
RRIRDRPPRLPRPRPRPVLDPRP | -0.0729
RRIRPRPPRLPRPRPRPHDVPRP | -0.242
RRIRGRPPRLPRPRPRPYRYPRP | 0.322
RRIRERPPRLPRPRPRPTIKPRP | -0.178
RRIRPRPPRLPRPRPRPPIHPRP | -0.039
RRIRWRPPRLPRPRPRPGYCPRP | -0.407
RRIRTRPPRLPRPRPRPPRMPRP | 0.165
